Source: patent US20210079071A1

Key:
[1] = biological target: T1, Staphylocoagulase peptide SC(1-10), …, unconjugated (Staphylococcus aureus); experiment: ELISA: purified GMA-2105 on unconjugated …, A490
[2] = biological target: Staphylocoagulase peptide SC(1-10) conjugated to ovalbumin (Staphylococcus aureus); experiment: ELISA: purified GMA-2105 on SC peptide-ovalbumin conjugate, A490
[3] = biological target: T1, Staphylocoagulase peptide SC(1-10), …, …; experiment: ELISA: GMA-2105 F(ab) on wells coated with …, A490
[4] = biological target: GMA-2105 murine anti-staphylocoagulase monoclonal antibody

B1: GMA-2105 murine anti-staphylocoagulase monoclonal antibody (antibody, V domains shown)
VH: EVKLEESGGGLVQPGGSMKLSCAASGFTFSDAWMDWVRQSPEKGLEWVAEIRTKANNHATYYAESVKGRFTISRDDSKSSVYLQMNSLRAEDTGIYYCTNVYYGNNDVKDYWGQGTSVTVSPAS
VL: DIVMTQSQKFMSTSVGDRVSVTCKASQNVDIYVAWYQQKPGQSPKALIYSASYRFSGVPDRFTGSGSGTDFTLSISNVQSEDLAEYFCQQYNNYPYTFGGGTKLEIKRADAAPTVSIFPPSSEGRI
Binder B1 has an EC50 (read off the curve) [1] of 0.05 µg/mL and an EC50 (read off the curve) [2] of 0.03 µg/mL.

B2: GMA-2105 F(ab) fragment (Fab, V domains shown)
VH: B1 VH
VL: B1 VL
With B2 the EC50 (read off the curve) [3] was 0.1 µg/mL.

IVTKDYSKES (modifications not checked) [Staphylocoagulase peptide SC(1-10), …, unconjugated] showed an IC50 (read off the curve) [4] of 2 nM.
